Consider 84 variants from the RNAGym collection of RNA variant scans (doi:10.1073/pnas.2313332121).

Sequences and labels used below:
B1: TPR 5TU (parent)
chain: GGAUCUUCUCGAUCUAACAAAAAAGACAAAUCUGCCACAAAGCUUGAGAGCAUCUUCGGAUGCAGAGGCGGCAGCCUUCGGUGGCGCGAUAGCGCCAACGUUCUCAACUAUGACACGCAAAACGCGUGCUCCGUUGAAUGGAGUUUAUCAUG

Fewer inactive variants are shown than the library holds. Some results are limits rather than exact numbers.

The series covers variants of B1. The experiment in a line: polymerase ribozyme fitness, log enrichment relative to wild type (log ratio); higher = more active; in vitro selection for triplet polymerase activity. Summed up:
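Frozen incubation at −7 °C formed the core of a single, triplicate in vitro selection round applied to PCR-built, transcribed mutant libraries of each subunit of a heterodimeric triplet polymerase ribozyme. Extended constructs were gel-excised, captured with streptavidin beads and amplified by RT-PCR, and input and output libraries were Illumina-sequenced with a filter of ≥10 input reads and ≥1 read per output. Fitness is the logarithm of genotype enrichment relative to wild-type enrichment, with inverse-variance-weighted replicate averaging, and the logarithm is base 2.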
For A64G G68A C85A, the “polymerase ribozyme fitness (log ratio)” value is at most -4.2. On to G71C C79U A91C U135G, for which the “polymerase ribozyme fitness (log ratio)” value was at most -4.2. For the variant G65A G70A G94A C116U G143U, the “polymerase ribozyme fitness (log ratio)” value was at most -4.2. Consider G71U G80C C93U A97U C132A, for which the “polymerase ribozyme fitness (log ratio)” value is at most -4.2. Take G68A C105U: the “polymerase ribozyme fitness (log ratio)” value was -3.51. In the case of A64G C103G U148G it was at most -4.2; in that of G70A G94U C96G A142C U148A, at most -4.2.

Consider A66U C87G U90G U102A C132U, for which the “polymerase ribozyme fitness (log ratio)” value is at most -4.2. For G70C G81A C96A C108U A120G A138C, the “polymerase ribozyme fitness (log ratio)” value was at most -4.2. As for C69G G143C, the “polymerase ribozyme fitness (log ratio)” value is -4.1. With A66G G92C, the “polymerase ribozyme fitness (log ratio)” value is -3.77. As to C69U U102C, the “polymerase ribozyme fitness (log ratio)” value was -2.59.

In the case of C72U A89C C95U C105U, the “polymerase ribozyme fitness (log ratio)” value was -1.12. With G68A C79U A91G, the “polymerase ribozyme fitness (log ratio)” value is -4.14. On to A64G G86U U130C, for which the “polymerase ribozyme fitness (log ratio)” value is at most -4.2. For C69U C93A C103U C116A U148G, the “polymerase ribozyme fitness (log ratio)” value is at most -4.2. In the case of A64U A66G U77C C96G C103G C116A it was at most -4.2; in that of A64G G86A, -4.08; in that of C72G A73C U102G C103G, at most -4.2. In the case of G67A C72A A142U A150G it was at most -4.2. A64U C93G C114G: the “polymerase ribozyme fitness (log ratio)” value was at most -4.2. With G68C C93U, the “polymerase ribozyme fitness (log ratio)” value is -4.04. Take C69A U77G C118U U139C: the “polymerase ribozyme fitness (log ratio)” value was at most -4.2. In the case of C69A G81A it was -1.51; in that of A66C C96A A115C C123U G136C, at most -4.2; in that of G68A G88A C116A A119U, -3.78. As for C69U C95U U101G G152C, the “polymerase ribozyme fitness (log ratio)” value is -3.5. Take G71A C95U: the “polymerase ribozyme fitness (log ratio)” value is -3.12.

Take C69U G86A: the “polymerase ribozyme fitness (log ratio)” value is -1.13.

Turning to C69A U134G, the “polymerase ribozyme fitness (log ratio)” value is -3.35.

As to G70C C87A G140C, the “polymerase ribozyme fitness (log ratio)” value is at most -4.2.

With G68A C93G, the “polymerase ribozyme fitness (log ratio)” value is at most -4.2. The result for G68A G83U G88A A107U C114U reads at most -4.2; that for G70A G86A U90G C93G A110U C114U U134A, at most -4.2.

Consider G70C G86C, for which the “polymerase ribozyme fitness (log ratio)” value was at most -4.2. Regarding G65A G88U A150G, the “polymerase ribozyme fitness (log ratio)” value was at most -4.2.

In the case of G67A C87U C103U C114G C116U A119G, the “polymerase ribozyme fitness (log ratio)” value was at most -4.2. Take A64U A73G A89C G92A A150U: the “polymerase ribozyme fitness (log ratio)” value was at most -4.2.

In the case of G70A C87U, the “polymerase ribozyme fitness (log ratio)” value was -3.05.

Take A66C A73C G140U A147C: the “polymerase ribozyme fitness (log ratio)” value was at most -4.2. For G67C C85U G126U G133C G143A, the “polymerase ribozyme fitness (log ratio)” value was at most -4.2. As for G67C C79G A97U C116A A142C, the “polymerase ribozyme fitness (log ratio)” value was at most -4.2. In the case of G70A G86U G88U C99G C105G C114G it was at most -4.2. With C69A U148A, the “polymerase ribozyme fitness (log ratio)” value was -4.08. Turning to C69A G86A C149A, the “polymerase ribozyme fitness (log ratio)” value was at most -4.2. On to A64U C75U C85U G136C, for which the “polymerase ribozyme fitness (log ratio)” value was at most -4.2. For the variant G67C G88U C149A, the “polymerase ribozyme fitness (log ratio)” value is at most -4.2.

On to G68C A122C U127A, for which the “polymerase ribozyme fitness (log ratio)” value was at most -4.2.

Take C72A C93A: the “polymerase ribozyme fitness (log ratio)” value is at most -4.2. For G71A G92U, the “polymerase ribozyme fitness (log ratio)” value was -2.6. Turning to C69U G126C, the “polymerase ribozyme fitness (log ratio)” value was -0.197. Take G67C C125G: the “polymerase ribozyme fitness (log ratio)” value was at most -4.2. For C69A A73G C87U, the “polymerase ribozyme fitness (log ratio)” value was at most -4.2. For the variant C69A C95A C96G G152U, the “polymerase ribozyme fitness (log ratio)” value is -3.59. For G68U C79G G84A C105U A147U, the “polymerase ribozyme fitness (log ratio)” value was at most -4.2. As for A66G C76A, the “polymerase ribozyme fitness (log ratio)” value is -3.94. Consider G71C G86U A91C G133A, for which the “polymerase ribozyme fitness (log ratio)” value was at most -4.2.

Take G68A C116A C123U: the “polymerase ribozyme fitness (log ratio)” value was at most -4.2. Turning to G70A G124C U144C, the “polymerase ribozyme fitness (log ratio)” value is at most -4.2.

For G68A A98U, the “polymerase ribozyme fitness (log ratio)” value is -3.61. As to G67C G94A C95G A150G, the “polymerase ribozyme fitness (log ratio)” value is at most -4.2. As to A66C A106G U144G, the “polymerase ribozyme fitness (log ratio)” value is at most -4.2.

For the variant G68C C69A G92U G136A, the “polymerase ribozyme fitness (log ratio)” value was -4.11.

As to G71C G94A, the “polymerase ribozyme fitness (log ratio)” value is -3.93. On to G65A C69A G84A, for which the “polymerase ribozyme fitness (log ratio)” value is -1.8. Regarding G65C C93A A97U C108U U109C, the “polymerase ribozyme fitness (log ratio)” value was at most -4.2.

Consider G67U C87U U104G C132G U144C U148G, for which the “polymerase ribozyme fitness (log ratio)” value is at most -4.2.

With A66C U134C, the “polymerase ribozyme fitness (log ratio)” value is at most -4.2. Turning to A66C C96A, the “polymerase ribozyme fitness (log ratio)” value is at most -4.2. Consider C69G G71U G140A, for which the “polymerase ribozyme fitness (log ratio)” value is at most -4.2. For the variant A66G C85A, the “polymerase ribozyme fitness (log ratio)” value was -3.39.

G65A C131U: the “polymerase ribozyme fitness (log ratio)” value was -0.0454. As for C69U U78G C96G U134A U135C, the “polymerase ribozyme fitness (log ratio)” value is at most -4.2.

Regarding G68A C95U, the “polymerase ribozyme fitness (log ratio)” value was -3.77. In the case of C69A U77C A98U A122U U146C U151A it was at most -4.2. The result for A66G A73C C85G A107U reads at most -4.2.

For C72G U146G, the “polymerase ribozyme fitness (log ratio)” value was at most -4.2. Turning to G68A U90G A150U, the “polymerase ribozyme fitness (log ratio)” value was at most -4.2. On to G68A C85U A110G, for which the “polymerase ribozyme fitness (log ratio)” value was at most -4.2. As for G68C A97U U102A, the “polymerase ribozyme fitness (log ratio)” value was at most -4.2.

Turning to G70A U82A C87G A89U C103A C105A, the “polymerase ribozyme fitness (log ratio)” value is at most -4.2. The result for C72A C103G C118G U148G reads at most -4.2; that for C69G C108U U148A, at most -4.2; that for C69U C85U U148C, -2.71.
